Tests used:
[1] = molecular target: T1, AT4G35510.1 TRBIP1 (Arabidopsis thaliana); experiment: IP-MS rep 2
T1 construct: Endogenous protein found by mass spectrometry
T1 chain: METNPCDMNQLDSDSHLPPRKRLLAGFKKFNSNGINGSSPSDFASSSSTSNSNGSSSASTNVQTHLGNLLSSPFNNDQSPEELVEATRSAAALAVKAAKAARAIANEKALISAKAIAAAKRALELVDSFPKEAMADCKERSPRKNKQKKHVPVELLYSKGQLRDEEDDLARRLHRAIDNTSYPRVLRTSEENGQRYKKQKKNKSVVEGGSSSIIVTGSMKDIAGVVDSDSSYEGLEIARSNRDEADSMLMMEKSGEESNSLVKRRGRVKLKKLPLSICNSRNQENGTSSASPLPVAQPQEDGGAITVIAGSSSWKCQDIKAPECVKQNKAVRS
Description: (§1) The method of IP-MS used in this Example has been described in a recent paper (see e.g., Xue, Nat. Comm., 2021). Ten grams of unopened floral buds from Col-0 wild type and FLAG-tag transgenic plants, including PHD1, MOM1, AIPP3, MOM2, MORC6, PIAL2, TRB1, TRB2, TRB3, JMJ14, HD2A, HD2B, and ELF7 were collected and ground into fine powder with liquid nitrogen. These samples were resuspended with 25 mL IP buffer and homogenized until lump-free by dounce homogenizer. The lysate was filtered through Miracloth and incubated with 250 μL anti-FLAG M2 magnetic beads (Sigma) at 4° C. for 2 hours. The magnetic beads were washed with IP buffer and eluted with TBS containing 250 μg/mL 3×FLAG peptides. The eluted proteins were precipitated with trichloroacetic acid (Sigma) and subject to MS analyses as described previously (see e.g., Xue, Nat. Comm., 2021).

[2] = molecular target: T2, AT2G17540.2 TRBIP2 (Arabidopsis thaliana); experiment: IP-MS rep 2
T2 construct: Endogenous protein found by mass spectrometry
T2 chain: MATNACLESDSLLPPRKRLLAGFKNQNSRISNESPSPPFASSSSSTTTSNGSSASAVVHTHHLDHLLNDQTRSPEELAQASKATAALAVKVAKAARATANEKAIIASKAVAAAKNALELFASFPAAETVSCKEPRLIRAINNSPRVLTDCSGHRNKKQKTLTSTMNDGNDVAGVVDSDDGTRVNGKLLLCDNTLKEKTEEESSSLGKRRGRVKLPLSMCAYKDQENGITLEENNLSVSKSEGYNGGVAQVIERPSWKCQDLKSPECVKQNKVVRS
Description: as §1

[3] = molecular target: T3, AT2G23380.1 CLF (Arabidopsis thaliana, UniProt P93831 1-902); experiment: IP-MS rep 2
T3 construct: Endogenous protein found by mass spectrometry; also called CURLY LEAF
T3 sequence (looked up): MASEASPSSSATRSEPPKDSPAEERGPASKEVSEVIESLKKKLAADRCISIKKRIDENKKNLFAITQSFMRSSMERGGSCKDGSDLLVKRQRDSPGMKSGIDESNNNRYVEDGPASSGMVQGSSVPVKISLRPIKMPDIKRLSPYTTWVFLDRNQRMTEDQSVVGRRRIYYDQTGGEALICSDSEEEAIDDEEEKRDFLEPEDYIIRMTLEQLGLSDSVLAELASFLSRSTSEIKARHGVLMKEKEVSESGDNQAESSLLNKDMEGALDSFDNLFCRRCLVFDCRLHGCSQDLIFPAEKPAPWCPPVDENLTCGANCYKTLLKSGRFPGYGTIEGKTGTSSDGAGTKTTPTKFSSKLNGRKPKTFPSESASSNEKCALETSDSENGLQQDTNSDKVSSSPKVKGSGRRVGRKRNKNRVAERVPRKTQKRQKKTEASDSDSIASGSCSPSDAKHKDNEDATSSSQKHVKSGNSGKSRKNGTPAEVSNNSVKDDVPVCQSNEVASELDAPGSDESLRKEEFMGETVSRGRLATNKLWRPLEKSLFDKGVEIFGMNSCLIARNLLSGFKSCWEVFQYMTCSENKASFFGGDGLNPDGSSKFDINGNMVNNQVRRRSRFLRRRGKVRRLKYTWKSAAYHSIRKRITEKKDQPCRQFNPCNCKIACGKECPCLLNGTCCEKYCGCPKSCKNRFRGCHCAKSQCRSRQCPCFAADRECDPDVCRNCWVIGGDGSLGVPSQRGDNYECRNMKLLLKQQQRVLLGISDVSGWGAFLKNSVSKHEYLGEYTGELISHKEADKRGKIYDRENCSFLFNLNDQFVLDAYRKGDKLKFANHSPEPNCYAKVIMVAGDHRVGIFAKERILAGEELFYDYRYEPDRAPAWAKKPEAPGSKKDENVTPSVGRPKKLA
Description: as §1

[4] = molecular target: T4, AT5G51230.1 EMF2 (Arabidopsis thaliana, UniProt Q8L6Y4 1-631); experiment: IP-MS rep 2
T4 construct: Endogenous protein found by mass spectrometry; also called EMBRYONIC FLOWER 2
T4 sequence (looked up): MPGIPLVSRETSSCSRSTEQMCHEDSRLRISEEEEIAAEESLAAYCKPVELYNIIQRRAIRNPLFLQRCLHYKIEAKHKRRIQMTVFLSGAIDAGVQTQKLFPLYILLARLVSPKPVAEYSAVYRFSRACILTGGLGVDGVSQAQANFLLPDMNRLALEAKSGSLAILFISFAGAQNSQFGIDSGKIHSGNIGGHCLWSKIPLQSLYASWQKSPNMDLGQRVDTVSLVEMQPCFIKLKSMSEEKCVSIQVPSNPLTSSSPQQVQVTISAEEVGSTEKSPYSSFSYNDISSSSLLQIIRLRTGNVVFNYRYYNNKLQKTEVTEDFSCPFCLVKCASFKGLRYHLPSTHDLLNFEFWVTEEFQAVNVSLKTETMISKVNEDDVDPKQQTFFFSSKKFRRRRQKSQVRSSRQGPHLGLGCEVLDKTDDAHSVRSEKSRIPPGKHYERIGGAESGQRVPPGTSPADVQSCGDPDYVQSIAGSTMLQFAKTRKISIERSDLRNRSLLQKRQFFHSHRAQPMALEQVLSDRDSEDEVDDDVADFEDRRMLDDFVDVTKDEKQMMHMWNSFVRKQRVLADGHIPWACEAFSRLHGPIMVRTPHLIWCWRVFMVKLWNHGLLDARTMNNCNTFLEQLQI
Description: as §1

[5] = molecular target: T5, AT3G49850.1 TRB3 (Arabidopsis thaliana, UniProt Q9M2X3 1-295); experiment: IP-MS rep 2
T5 construct: Endogenous protein found by mass spectrometry
T5 sequence: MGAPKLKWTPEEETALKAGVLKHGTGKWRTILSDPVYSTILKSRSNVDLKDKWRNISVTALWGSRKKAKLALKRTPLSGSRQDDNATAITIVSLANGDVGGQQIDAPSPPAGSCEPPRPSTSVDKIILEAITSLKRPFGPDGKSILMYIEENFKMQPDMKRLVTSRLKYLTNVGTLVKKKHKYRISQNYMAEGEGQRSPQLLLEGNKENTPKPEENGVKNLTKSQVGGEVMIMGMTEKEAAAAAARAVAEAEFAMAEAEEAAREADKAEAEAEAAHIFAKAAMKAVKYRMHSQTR
Description: as §1

[6] = molecular target: T1, AT4G35510.1 TRBIP1; experiment: X-link IP-MS
[7] = molecular target: T2, AT2G17540.2 TRBIP2; experiment: X-link IP-MS
[8] = molecular target: T3, AT2G23380.1 CLF; experiment: X-link IP-MS
[9] = molecular target: T4, AT5G51230.1 EMF2; experiment: X-link IP-MS
[10] = molecular target: T5, AT3G49850.1 TRB3; experiment: X-link IP-MS
[11] = molecular target: T1, AT4G35510.1 TRBIP1; experiment: IP-MS rep 1
Description: as §1

[12] = molecular target: T2, AT2G17540.2 TRBIP2; experiment: IP-MS rep 1
Description: as §1

[13] = molecular target: T3, AT2G23380.1 CLF; experiment: IP-MS rep 1
Description: as §1

[14] = molecular target: T4, AT5G51230.1 EMF2; experiment: IP-MS rep 1
Description: as §1

[15] = molecular target: T5, AT3G49850.1 TRB3; experiment: IP-MS rep 1
Description: as §1

[16] = molecular target: T6, AT4G20400.1 JMJ14 (Arabidopsis thaliana, UniProt Q8GUI6 1-954); experiment: IP-MS rep 2
T6 construct: Endogenous protein found by mass spectrometry; also called JUMONJI 14
T6 sequence (Q8GUI6 whole entry): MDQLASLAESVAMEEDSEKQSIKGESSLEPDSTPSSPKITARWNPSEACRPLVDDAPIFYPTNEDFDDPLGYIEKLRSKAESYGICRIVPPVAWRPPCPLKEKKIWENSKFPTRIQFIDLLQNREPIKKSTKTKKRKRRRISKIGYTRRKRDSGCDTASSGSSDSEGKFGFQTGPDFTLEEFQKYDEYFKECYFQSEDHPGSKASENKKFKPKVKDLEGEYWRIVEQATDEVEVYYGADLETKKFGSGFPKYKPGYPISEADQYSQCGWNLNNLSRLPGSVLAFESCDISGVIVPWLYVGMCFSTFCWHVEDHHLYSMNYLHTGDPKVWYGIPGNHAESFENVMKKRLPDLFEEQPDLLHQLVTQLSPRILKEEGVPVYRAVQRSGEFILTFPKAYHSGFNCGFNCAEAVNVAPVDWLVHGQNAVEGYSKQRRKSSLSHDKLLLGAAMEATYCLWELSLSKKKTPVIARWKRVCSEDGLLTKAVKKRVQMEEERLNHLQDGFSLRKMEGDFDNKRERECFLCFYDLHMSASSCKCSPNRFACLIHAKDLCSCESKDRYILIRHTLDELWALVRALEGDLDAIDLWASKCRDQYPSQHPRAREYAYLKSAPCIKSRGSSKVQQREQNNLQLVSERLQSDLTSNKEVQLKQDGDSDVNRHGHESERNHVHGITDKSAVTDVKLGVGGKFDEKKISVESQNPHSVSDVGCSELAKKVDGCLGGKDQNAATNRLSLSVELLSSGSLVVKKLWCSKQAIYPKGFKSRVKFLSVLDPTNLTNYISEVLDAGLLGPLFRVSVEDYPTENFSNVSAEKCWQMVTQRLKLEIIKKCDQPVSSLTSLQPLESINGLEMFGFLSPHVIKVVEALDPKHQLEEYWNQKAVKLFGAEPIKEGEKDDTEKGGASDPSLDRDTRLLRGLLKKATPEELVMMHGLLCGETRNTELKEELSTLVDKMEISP
Description: as §1

[17] = molecular target: T6, AT4G20400.1 JMJ14; experiment: X-link IP-MS
[18] = molecular target: T6, AT4G20400.1 JMJ14; experiment: IP-MS rep 1
Description: as §1

B1: FLAG-TRB1 (other, not shown: small tags and cut ends)
chain: MGAPKQKWTQEEESALKSGVIKHGPGKWRTILKDPEFSGVLYLRSNVDLKDKWRNMSVMANGWGSREKSRLAVKRTFSLPKQEENSLALTNSLQSDEENVDATSGLQVSSNPPPRRPNVRLDSLIMEAIATLKEPGGCNKTTIGAYIEDQYHAPPDFKRLLSTKLKYLTSCGKLVKVKRKYRIPNSTPLSSHRRKGLGVFGGKQRTSSLPSPKTDIDEVNFQTRSQIDTEIARMKSMNVHEAAAVAAQAVAEAEAAMAEAEEAAKEAEAAEAEAEAAQAFAEEASKTLKGRNICKMMIRA
notes: FLAG-tagged TRB1 from its native promoter in the trb1 mutant background; Printed both as TRB-FLAG and FLAG-TRB1; the vector description gives a C-terminal 3xFLAG-BLRP, so the tag position under the label FLAG-TRB1 is not certain; also called TRB1-FLAG; TRB-FLAG
[1]
  IP-MS count: 11
[2]
  IP-MS count: 22
[3]
  IP-MS count: 0
[4]
  IP-MS count: 0
[5]
  IP-MS count: 0
[6]
  IP-MS count: 0
[7]
  IP-MS count: 0
[8]
  IP-MS count: 0
[9]
  IP-MS count: 0
[10]
  IP-MS count: 0
[11]
  IP-MS count: 5
[12]
  IP-MS count: 18
[13]
  IP-MS count: 0
[14]
  IP-MS count: 0
[15]
  IP-MS count: 0

B2: FLAG-TRB2 (other, not shown: small tags and cut ends)
chain: MGAPKQKWTPEEEAALKAGVLKHGTGKWRTILSDSEFSLILKSRSNVDLKDKWRNISVTALWGSRKKAKLALKRTPPGTKQDDNNTALTIVALTNDDERAKPTSPGGSGGGSPRTCASKRSITSLDKIIFEAITNLRELRGSDRTSIFLYIEENFKTPPNMKRHVAVRLKHLSSNGTLVKIKHKYRFSSNFIPAGARQKAPQLFLEGNNKKDPTKPEENGANSLTKFRVDGELYMIKGMTAQEAAEAAARAVAEAEFAITEAEQAAKEAERAEAEAEAAQIFAKAAMKALKFRIRNHPW
notes: FLAG-tagged TRB2 from its native promoter; tag position under the label FLAG-TRB2 not certain; also called TRB2-FLAG; TRB-FLAG
[1]
  IP-MS count: 22
[2]
  IP-MS count: 10
[16]
  IP-MS count: 4
[6]
  IP-MS count: 16
[7]
  IP-MS count: 7
[17]
  IP-MS count: 78
[11]
  IP-MS count: 22
[12]
  IP-MS count: 10
[18]
  IP-MS count: 3
